Source: paper PMC11303627 (Cancer Immunology, Immunotherapy : CII, 2024)

B1: TF8-5G9 anti-TF scFvFc (scFv, V domains shown)
VH: EIQLQQSGAELVRPGALVKLSCKASGFNIKDYYMHWVKQRPEQGLEWIGLIDPENGNTIYDPKFQGKASITADTSSNTAYLQLSSLTSEDTAVYYCARDNSYYFDYWGQGTTLTVSS
VL: DIKMTQSPSSMYASLGERVTITCKASQDIRKYLNWYQQKPWKSPKTLIYYATSLADGVPSRFSGSGSGQDYSLTISSLESDDTATYYCLQHGESPYTFGGGTKLEIN
notes: also called TF8-5G9 scFvFc; TF85G9 scFvFc; source: Expi293F, transfected (pcDNA3.1(-)), purified from supernatant (Protein A, then SEC on Superdex 200 after 2 mM DTT)
B2: hATR-5 scFvFc (scFv, V domains shown)
VH: QVQLLESGAVLARPGTSVKISCKASGFNIKDYYMHWVKQRPGQGLEWIGGNDPANGHSMYDPKFQGRVTITADTSTSTVFMELSSLRSEDTAVYYCARDSGYAMDYWGQGTLVTVSS
VL: DIQMTQSPSSLSASVGDRVTITCKASQDIKSFLSWYQQKPEKAPKSLIYYATSLADGVPSRFSGSGSGTDYTLTISSLQPEDFATYYCLQHGESPYTFGGGTKVEIK
notes: source: Expi293F, transfected (pcDNA3.1(-)), purified from supernatant (Protein A, then SEC on Superdex 200 after 2 mM DTT)

Target: T1, human TF-Fc (Homo sapiens, UniProt P13726)
T1 construct: tissue factor (TF; CD142), human; Construct limits may be in Supplementary file1; also called human tissue factor Fc fusion protein; HuTF; source: Expi293F, transfected (pcDNA3.1(-), Genscript), purified from supernatant (Protein A; for SPR also SEC on Superdex 200 after 2 mM DTT)
T1 sequence (P13726 33-251): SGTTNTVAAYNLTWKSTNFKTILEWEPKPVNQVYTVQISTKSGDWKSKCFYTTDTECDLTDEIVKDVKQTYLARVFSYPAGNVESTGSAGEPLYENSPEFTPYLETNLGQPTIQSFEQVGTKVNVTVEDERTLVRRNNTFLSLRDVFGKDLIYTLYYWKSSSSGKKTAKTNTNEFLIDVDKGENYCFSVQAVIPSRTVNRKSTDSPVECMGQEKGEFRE
Assay: SPR; human TF-Fc amine-coupled to a CM5 chip (target 500 RU); scFvFc flowed over at 18.75-3.125 nM in PBS-EP (0.01% Tween20, 300 mM NaCl PBS, pH 7.4), 30 µL/min, contact 180 s, dissociation 600 s; 25 °C; Biacore X100; global fit, 1:1 binding model
Conditions: both partners purified

Binder | Kd [nM]
B1 | 0.37
B2 | 0.46
